In patent US20240317859A1 (FOUNDATION FOR BIOMEDICAL RESEARCH AND INNOVATION AT KOBE, published 2024):
Positions count from the first letter of the chain named. Numbers in names are those of the source. Like-named read-outs stand apart in the source and are kept apart here.

B1: HM242-C1 (antibody, human IgG1, V domains shown)
VH: QVQLVQSGPEVKKPGASVKVVCKASGYTFTSYYIQWVKQRPGQGLEWIGWIYPGDGTTKYNEKFKGRVTMTIDKSTRTAYMELRSLRSDDTAVYYCASYYGSYFDYWGQGTLVTVSS
VL: DIQMTQTTSSLSASVGDRVTITCRASQDISNYLNWYQQKPDGTVTLLIYYTSKLHSGVPSRFSGSGSGTDYTLTISSLEQKDFATYYCQQSSTLPFTFGQGTKLEIK
notes: also called humanized HM242, VH ver.C / VL ver.1
B2: HM242-C2 (antibody, human IgG1, V domains shown)
VH: B1 VH
VL: B1 VL with T7S, T8P, E79Q, Q80P, K81E
notes: also called humanized HM242, VH ver.C / VL ver.2
B3: humanized HM242-C3-IgG1-K322A (antibody, V domains shown)
VH: B1 VH
VL: DIQMTQSPSSLSASVGDRVTITCRASQDISNYLNWYQQKPGKAPKLLIYYTSKLHSGVPSRFSGSGSGTDYTLTISSLQPEDFATYYCQQSSTLPFTFGQGTKLEIKR
B4: humanized HM242-D3-IgG1-K322A (antibody, V domains shown)
VH: B1 VH with K38R, R40V, I48M, K74T, R77S
VL: B3 VL
B5: HM242-D1 (antibody, human IgG1, V domains shown)
VH: B1 VH with K38R, R40V, I48M, K74T, R77S
VL: B1 VL
notes: also called humanized HM242, VH ver.D / VL ver.1
B6: HM268-M8 (antibody, human IgG1, V domains shown)
VH: B1 VH with K38R, R40V, I48M, P53F, G56A, T57S, I72A, K74T, R77S, L112T
VL: B1 VL with T7S, T8P, T45K, Y50S, K53R, E79Q, Q80P, K81E, S91G
notes: also called humanized HM268, VH ver.M / VL ver.8
B7: HM242-D2 (antibody, human IgG1, V domains shown)
VH: B1 VH with K38R, R40V, I48M, K74T, R77S
VL: B1 VL with T7S, T8P, E79Q, Q80P, K81E
notes: also called humanized HM242, VH ver.D / VL ver.2
B8: chimeric HM297-IgG1-K322A (antibody)
heavy: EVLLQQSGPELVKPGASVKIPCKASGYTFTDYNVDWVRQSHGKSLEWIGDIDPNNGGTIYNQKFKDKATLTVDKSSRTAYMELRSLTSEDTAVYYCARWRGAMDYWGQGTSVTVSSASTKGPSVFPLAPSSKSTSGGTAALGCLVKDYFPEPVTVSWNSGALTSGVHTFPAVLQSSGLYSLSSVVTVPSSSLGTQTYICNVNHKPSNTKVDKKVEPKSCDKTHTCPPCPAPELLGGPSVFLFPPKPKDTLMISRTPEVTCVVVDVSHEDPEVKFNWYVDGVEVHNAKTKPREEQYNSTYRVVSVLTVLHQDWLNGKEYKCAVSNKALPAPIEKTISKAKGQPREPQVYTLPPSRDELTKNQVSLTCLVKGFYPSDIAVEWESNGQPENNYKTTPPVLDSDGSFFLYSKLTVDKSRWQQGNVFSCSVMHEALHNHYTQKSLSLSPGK
light: DVQMTQTTSSLSASLGDRVTISCRASQDIDNYLKWYQQKPDGTVKLLIYDTSRLHSGVPSRFSGSGSGTDYSLTISNLKQEDIATYFCQQGYTLPWTFGGGTRLEIKRTVAAPSVFIFPPSDEQLKSGTASVVCLLNNFYPREAKVQWKVDNALQSGNSQESVTEQDSKDSTYSLSSTLTLSKADYEKHKVYACEVTHQGLSSPVTKSFNRGEC
notes: Mouse Fab region with the Fc region of human IgG1-K322A
B9: HM297-G5 (antibody, human IgG1, V domains shown)
VH: QVQLVQSGPEVKKPGASVKIPCKASGYTFTDYNVDWVRQVPGQGLEWIGDIDPNNGGTIYNQKFKDKATLTVDKSTRTAYMELRSLRSDDTAVYYCARWRGAMDYWGQGTLVTVSS
VL: DIQMTQSPSSLSASVGDRVTITCRASQDIDNYLKWYQQKPDGTVKLLIYDTSRLHSGVPSRFSGSGSGTDYTLTISSLKQEDFATYYCQQGYTLPWTFGQGTKLEIK
notes: also called humanized HM297, VH ver.G / VL ver.5
B10: HM297-E4 (antibody, human IgG1, V domains shown)
VH: B9 VH with V11L, K12V, V40S, P41H, Q43K, G44S
VL: B9 VL with S7T, P8T
notes: also called humanized HM297, VH ver.E / VL ver.4
B11: HM297-E5 (antibody, human IgG1, V domains shown)
VH: B9 VH with V11L, K12V, V40S, P41H, Q43K, G44S
VL: B9 VL
notes: also called humanized HM297, VH ver.E / VL ver.5
B12: HM297-E6 (antibody, human IgG1, V domains shown)
VH: B9 VH with V11L, K12V, V40S, P41H, Q43K, G44S
VL: B9 VL with D41G, G42K, T43A, V44P, K79Q, Q80P
notes: also called humanized HM297, VH ver.E / VL ver.6
B13: HM297-F4 (antibody, human IgG1, V domains shown)
VH: B9 VH with V40S, P41H, Q43K, G44S, K67R, A68V, L70M
VL: B9 VL with S7T, P8T
notes: also called humanized HM297, VH ver.F / VL ver.4
B14: HM297-F5 (antibody, human IgG1, V domains shown)
VH: B9 VH with V40S, P41H, Q43K, G44S, K67R, A68V, L70M
VL: B9 VL
notes: also called humanized HM297, VH ver.F / VL ver.5
B15: HM297-G4 (antibody, human IgG1, V domains shown)
VH: B9 VH
VL: B9 VL with S7T, P8T
notes: also called humanized HM297, VH ver.G / VL ver.4
B16: HM297-G6 (antibody, human IgG1, V domains shown)
VH: B9 VH
VL: B9 VL with D41G, G42K, T43A, V44P, K79Q, Q80P
notes: also called humanized HM297, VH ver.G / VL ver.6
B17: HM297-H4 (antibody, human IgG1, V domains shown)
VH: B9 VH with I48M, K67R, A68V, L70M
VL: B9 VL with S7T, P8T
notes: also called humanized HM297, VH ver.H / VL ver.4
B18: HM297-H6 (antibody, human IgG1, V domains shown)
VH: B9 VH with I48M, K67R, A68V, L70M
VL: B9 VL with D41G, G42K, T43A, V44P, K79Q, Q80P
notes: also called humanized HM297, VH ver.H / VL ver.6
B19: HM297-I4 (antibody, human IgG1, V domains shown)
VH: B9 VH with I20V, P21V, I48M, K67R, A68V, L70M, K74T
VL: B9 VL with S7T, P8T
notes: also called humanized HM297, VH ver.I / VL ver.4
B20: HM297-I5 (antibody, human IgG1, V domains shown)
VH: B9 VH with I20V, P21V, I48M, K67R, A68V, L70M, K74T
VL: B9 VL
notes: also called humanized HM297, VH ver.I / VL ver.5
B21: HM297-F6 (antibody, human IgG1, V domains shown)
VH: B9 VH with V40S, P41H, Q43K, G44S, K67R, A68V, L70M
VL: B9 VL with D41G, G42K, T43A, V44P, K79Q, Q80P
notes: also called humanized HM297, VH ver.F / VL ver.6
B22: humanized HM297-H5-IgG1-K322A (antibody, V domains shown)
VH: B9 VH with I48M, K67R, A68V, L70M
VL: DIQMTQSPSSLSASVGDRVTITCRASQDIDNYLKWYQQKPDGTVKLLIYDTSRLHSGVPSRFSGSGSGTDYTLTISSLKQEDFATYYCQQGYTLPWTFGQGTKLEIKR
B23: chimeric HM242-IgG1-K322A (antibody)
heavy: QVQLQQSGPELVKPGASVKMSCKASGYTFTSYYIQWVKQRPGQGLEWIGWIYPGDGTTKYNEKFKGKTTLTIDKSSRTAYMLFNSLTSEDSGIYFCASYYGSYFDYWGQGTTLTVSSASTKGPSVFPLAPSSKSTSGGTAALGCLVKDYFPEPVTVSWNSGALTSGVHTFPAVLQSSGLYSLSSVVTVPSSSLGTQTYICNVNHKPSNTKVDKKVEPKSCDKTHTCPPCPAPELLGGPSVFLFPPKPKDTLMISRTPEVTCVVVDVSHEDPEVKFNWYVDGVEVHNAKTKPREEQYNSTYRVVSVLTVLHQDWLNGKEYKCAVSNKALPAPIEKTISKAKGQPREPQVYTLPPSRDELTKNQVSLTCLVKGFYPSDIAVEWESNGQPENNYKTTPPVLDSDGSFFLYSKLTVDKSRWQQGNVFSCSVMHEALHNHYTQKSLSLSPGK
light: DIQMTQTTSSLSASLGDRVTISCRASQDISNYLNWYQQKPDGTVTLLIYYTSKLHSGVPSRFSGSGSGTDYSLTITNLEQKDFATYFCQQSSTLPFTFGGGTKLEIKRTVAAPSVFIFPPSDEQLKSGTASVVCLLNNFYPREAKVQWKVDNALQSGNSQESVTEQDSKDSTYSLSSTLTLSKADYEKHKVYACEVTHQGLSSPVTKSFNRGEC
notes: as for B8
B24: HM297-I6 (antibody, human IgG1, V domains shown)
VH: B9 VH with I20V, P21V, I48M, K67R, A68V, L70M, K74T
VL: B9 VL with D41G, G42K, T43A, V44P, K79Q, Q80P
notes: also called humanized HM297, VH ver.I / VL ver.6
B25: HM242-A1 (antibody, human IgG1, V domains shown)
VH: B1 VH with V11L, K12V, R67K, V68T, M70L
VL: B1 VL
notes: also called humanized HM242, VH ver.A / VL ver.1
B26: HM242-A2 (antibody, human IgG1, V domains shown)
VH: B1 VH with V11L, K12V, R67K, V68T, M70L
VL: B1 VL with T7S, T8P, E79Q, Q80P, K81E
notes: also called humanized HM242, VH ver.A / VL ver.2
B27: HM242-A3 (antibody, human IgG1, V domains shown)
VH: B1 VH with V11L, K12V, R67K, V68T, M70L
VL: B1 VL with T7S, T8P, D41G, G42K, T43A, V44P, T45K, E79Q, Q80P, K81E
notes: also called humanized HM242, VH ver.A / VL ver.3
B28: HM242-B1 (antibody, human IgG1, V domains shown)
VH: B1 VH with K38R, R40V, I48M, R67K, V68T, M70L
VL: B1 VL
notes: also called humanized HM242, VH ver.B / VL ver.1
B29: HM242-B2 (antibody, human IgG1, V domains shown)
VH: B1 VH with K38R, R40V, I48M, R67K, V68T, M70L
VL: B1 VL with T7S, T8P, E79Q, Q80P, K81E
notes: also called humanized HM242, VH ver.B / VL ver.2
B30: HM242-B3 (antibody, human IgG1, V domains shown)
VH: B1 VH with K38R, R40V, I48M, R67K, V68T, M70L
VL: B1 VL with T7S, T8P, D41G, G42K, T43A, V44P, T45K, E79Q, Q80P, K81E
notes: also called humanized HM242, VH ver.B / VL ver.3

Key:
[1] = target: T1, human PD-1 (wild-type), expressed on cells (human, UniProt Q15116 25-288); assay: cell-based or functional assay
T1 sequence (Q15116 25-288 limits assumed): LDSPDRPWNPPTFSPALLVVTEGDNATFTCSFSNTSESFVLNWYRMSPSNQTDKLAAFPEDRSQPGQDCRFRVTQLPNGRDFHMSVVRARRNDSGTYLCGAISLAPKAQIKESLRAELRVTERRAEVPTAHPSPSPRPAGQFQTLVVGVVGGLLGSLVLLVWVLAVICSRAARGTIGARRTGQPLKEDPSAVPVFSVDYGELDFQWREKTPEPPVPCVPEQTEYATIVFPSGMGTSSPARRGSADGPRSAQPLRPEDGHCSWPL

[2] = target: Human PD-1/PDCD1 Protein (PD-1) (human, UniProt Q15116 25-167, limits assumed); assay: SPR, Biacore 8K; PD-1 captured by anti-His antibody, antibody in flow
Chain of Human PD-1/PDCD1 Protein (PD-1) (Q15116 25-167 limits assumed): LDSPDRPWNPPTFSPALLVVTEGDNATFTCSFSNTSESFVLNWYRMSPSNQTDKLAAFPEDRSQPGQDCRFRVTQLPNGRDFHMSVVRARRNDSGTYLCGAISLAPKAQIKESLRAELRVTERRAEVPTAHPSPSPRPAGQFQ
Experimental: The binding affinity of each antibody to human PD-1 was measured with Biacore 8K (Cytiva). Briefly, anti-His Tag antibody was immobilized by amine coupling using Amine Coupling Kit and His Capture Kit, onto 8 channels of a sensor chip (provided with 16 flow cells; one channel consisting of two flow cells) which had carboxymethyl dextran immobilized on a gold film. The immobilization was performed by feeding an activation solution (NHS and EDC mixed in equal amounts) at a flow rate of 10 μl/min for 7 minutes, an immobilization solution at a flow rate of 5 μl/min for 7 minutes, and 1 M ethanolamine hydrochloride-NaOH (pH 8.5) at a flow rate of 10 μl/min for 7 minutes. The buffer used at the time of immobilization was 1×HBS-EP+ Buffer. After the immobilization and before applying a sample, Human PD-1/PDCD1 Protein (PD-1) adjusted to 1 μg/ml with 1×HBS-EP+ Buffer was fed to one of the two flow cells of each channel in an amount of 20 μl at a flow rate of 10 μl/min to thereby capture PD-1 on the sensor chip. As regards the other flow cell, 1×HBS-EP+ Buffer was fed in the same manner to prepare a control flow cell. Each antibody was adjusted to 16 nM with 1×HBS-EP+ Buffer, and then subjected to 2-fold 7-step serial dilution using 1×HBS-EP+ Buffer. The resultant sample solution (30 μl) was fed to each flow cell at a flow rate of 10 μl/min and the response was measured. After subtracting the response of control flow cell from the response of the flow cell which was allowed to capture the ligand, KD value was calculated by curve fitting using Biacore 8K Evaluation Software.

[3] = target: T1, human PD-1 (wild-type), expressed on …; assay: cell-based or functional assay; remark: listed apart in the source
[4] = target: T1, human PD-1 (wild-type), expressed on …; assay: cell-based or functional assay; remark: listed apart in the source

| Binder | Cell-cell contact assay [1] [ng/mL] | Kd [2] [nM] | Cell-cell contact assay [3] [ng/mL] | Cell-cell contact assay [4] [ng/mL] |
| --- | --- | --- | --- | --- |
| B1 | 19 | < 0.0179 | – | – |
| B2 | 18.1 | < 0.0211 | – | – |
| B3 | 23.7 | < 0.0186 | – | – |
| B4 | 31.5 | < 0.0492 | – | – |
| B5 | 24.8 | 0.103 | – | – |
| B6 | – | 0.00359 | 75.8 | – |
| B7 | 33.3 | < 0.0603 | – | – |
| B8 | – | 0.0493 | – | 78.3 |
| B9 | – | 0.232 | – | 102 |
| B10 | – | 0.129 | – | 100 |
| B11 | – | 50.2 | – | 78.6 |
| B12 | – | 12.6 | – | 65.4 |
| B13 | – | 24.1 | – | 92.3 |
| B14 | – | 2.35 | – | 98.9 |
| B15 | – | 0.451 | – | 55.4 |
| B16 | – | 1.89 | – | 59.7 |
| B17 | – | 0.221 | – | 185 |
| B18 | – | 1.86 | – | 141 |
| B19 | – | 4.84 | – | 65.6 |
| B20 | – | 2.2 | – | 94.9 |
| B21 | – | 4.83 | – | 150 |
| B22 | – | 0.563 | – | 96.4 |
| B23 | 13.7 | < 0.051 | – | – |
| B24 | – | 3.48 | – | 137 |
| B25 | 13.1 | < 0.0356 | – | – |
| B26 | 16.7 | < 0.0408 | – | – |
| B27 | 18.8 | < 0.0217 | – | – |
| B28 | 7.15 | < 0.0448 | – | – |
| B29 | 8.83 | < 0.0315 | – | – |
| B30 | 20.8 | < 0.0307 | – | – |
